Results on two substances are retold here after patent US20030145347.

Data set [1] deals with soybean thioredoxin prep without S-tag (recombinant, expressed in E. coli from pNOV4112, S-Tag removed by thrombin cleavage).
For data set [2], the system named is soybean thioredoxin with S-tag (recombinant, expressed in E. coli from pNOV4112).
Data set [3] has as its system rice thioredoxin with S-tag (recombinant, expressed in E. coli from pNOV4113).

Take “Arabidopsis NADPH thioredoxin reductase without S-tag (recombinant, expressed in E. coli from pNOV4115)”: the “reduction of thioredoxin, DTNB assay” value in data set [1] was “can reduce soybean thioredoxin with and without the S-tag”; in data set [2], “can reduce soybean thioredoxin with and without the S-tag”; in data set [3], “can also reduce rice thioredoxin”. Also, the “reduction of thioredoxin in vitro” value in data set [3] is listed as “Arabidopsis thioredoxin reductase is found to be active in reducing rice thioredoxin in vitro”.

Regarding “soybean thioredoxin prep without S-tag (recombinant, expressed in E. coli from pNOV4112, S-Tag removed by thrombin cleavage)”, in the data set on insulin, the OD 650 nm (after 31 minutes), insulin reduction assay, thioredoxin 4 ug as printed in the row amounted to 0.001 OD 650 nm; the OD 650 nm (after 31 minutes), insulin reduction assay, thioredoxin 5 ug as printed in the row amounted to 0.0077 OD 650 nm; the OD 650 nm (after 31 minutes), insulin reduction assay, thioredoxin 6 ug as printed in the row was 0.0084 OD 650 nm; the OD 650 nm (after 31 minutes), insulin reduction assay, thioredoxin 7 ug as printed in the row was 0.0117 OD 650 nm. In the data set on insulin, this substance showed a Rate of Precipitation (change of A650/min), insulin reduction assay, thioredoxin 4 ug as printed in the row of 3.2e-05 A650/min; a Rate of Precipitation (change of A650/min), insulin reduction assay, thioredoxin 5 ug as printed in the row of 0.00025 A650/min; a Rate of Precipitation (change of A650/min), insulin reduction assay, thioredoxin 6 ug as printed in the row of 0.00027 A650/min; a Rate of Precipitation (change of A650/min), insulin reduction assay, thioredoxin 7 ug as printed in the row of 0.00038 A650/min.
